{
  "source": "paper PMC4192540",
  "about": "“Targeted In Vivo Inhibition of Specific Protein–Protein Interactions Using Recombinant Antibodies” (PLoS ONE, 2014)",
  "binders": {"B1": {"name": "scFv hB7A, Gal4 DNA binding domain fusion (scFv, V domains shown)", "VH": "EVQLLESGGGLVQPGGSLRLSCAASGFTFSFYRMSWVRQAPGKGLEWVSAISGSGGSTYYADSVKGRFTISRDNSKNTLYLQMNSLRAEDTAVYYCAKRVLTFDYWGQGTLVTVSS", "VL": "DIQMTQSPSSLSASVGDRVTITCRASQSIRKRLNWYQQKPGKAPKLLIYAASSLQSGVPSRFSGSGSGTDFTLTISSLQPEDFATYYCQQSYSTPPTFGQGTKVEIK", "notes": "selected from Human Single Fold scFv Library A+B; cloned between NcoI and NotI of pGBKT7; source: yeast two-hybrid fusion (pGBKT7, S. cerevisiae PJ69-4A)"}, "B2": {"name": "scFv hB7A, ectopic expression from pY3HS (scFv, V domains shown)", "VH": "B1 VH", "VL": "B1 VL", "notes": "source: S. cerevisiae PJ69-4A, ectopic expression from pY3HS"}, "B3": {"name": "nYFP:scFv-hB7A (scFv, V domains shown)", "VH": "B1 VH", "VL": "B1 VL", "notes": "sub-cloned from pY3HS with BglII and EcoRI, so the StrepTag II of the cassette may be carried along (surmise); source: A. thaliana Col-0 mesophyll protoplasts, transfected; not shown: N-terminal fragment of YFP (nYFP), N-terminal, kept"}, "B4": {"name": "scFv hB7A with C-terminal c-myc-tag (scFv, V domains shown)", "VH": "B1 VH", "VL": "B1 VL", "notes": "source: E. coli BL21(DE3), periplasmic extract; purified (ammonium sulfate, Protein L column); not shown: c-myc-tag, C-terminal, kept"}, "B5": {"name": "scFv-hB7A:nYFP (scFv, V domains shown)", "VH": "B1 VH", "VL": "B1 VL", "notes": "sub-cloned from pY3HS with BglII and EcoRI, so the StrepTag II of the cassette may be carried along (surmise); source: A. thaliana Col-0 mesophyll protoplasts, transfected; not shown: N-terminal fragment of YFP (nYFP), C-terminal, kept"}},
  "details_in_all_cases": "partners not purified",
  "key": {"[1]": {"target": "T1, ARABIDOPSIS … PHOSPHOTRANSFER PROTEIN 6, Gal4 activation domain fusion (Arabidopsis thaliana (Mouse-ear cress)., UniProt Q9SSC9)", "T1 construct": "ARABIDOPSIS … PHOSPHOTRANSFER PROTEIN 6 (AHP6), A. thaliana; also called AHP6; source: yeast two-hybrid fusion (pGADT7-DEST, S. cerevisiae PJ69-4A)", "T1 sequence (Q9SSC9 whole entry, the tested form may be a part)": "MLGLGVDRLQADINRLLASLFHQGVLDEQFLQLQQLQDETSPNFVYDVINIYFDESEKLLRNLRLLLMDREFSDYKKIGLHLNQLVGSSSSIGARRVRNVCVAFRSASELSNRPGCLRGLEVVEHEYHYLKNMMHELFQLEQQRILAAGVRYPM", "test": "two-hybrid; recombinant antibodies as Gal4 DNA BD fusions (pGBKT7), AHP proteins as Gal4 AD fusions (pGADT7-DEST); S. cerevisiae PJ69-4A; growth after 3 days at 30°C on media lacking Leu, Trp and His or Ade; 1-5 mM 3-Amino-1,2,4-triazole for stringent selection"}, "[2]": {"target": "T2, ARABIDOPSIS … PHOSPHOTRANSFER PROTEIN 2, Gal4 activation domain fusion (A. thaliana, UniProt Q9ZNV8)", "T2 construct": "ARABIDOPSIS … PHOSPHOTRANSFER PROTEIN 2 (AHP2), A. thaliana; also called AHP2; source: yeast two-hybrid fusion (pGADT7-DEST, S. cerevisiae PJ69-4A)", "T2 sequence (Q9ZNV8 whole entry, the tested form may be a part)": "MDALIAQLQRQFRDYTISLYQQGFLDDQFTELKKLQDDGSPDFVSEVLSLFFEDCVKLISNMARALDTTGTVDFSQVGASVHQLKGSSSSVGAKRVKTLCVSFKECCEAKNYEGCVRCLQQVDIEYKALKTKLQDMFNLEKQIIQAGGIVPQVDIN", "test": "two-hybrid; recombinant antibodies as Gal4 DNA BD fusions (pGBKT7), AHP proteins as Gal4 AD fusions (pGADT7-DEST); S. cerevisiae PJ69-4A; growth after 3 days at 30°C on media lacking Leu, Trp and His or Ade; 1-5 mM 3-Amino-1,2,4-triazole for stringent selection"}, "[3]": {"target": "T3, ARABIDOPSIS … PHOSPHOTRANSFER PROTEIN 1, Gal4 activation domain fusion (Arabidopsis thaliana (Mouse-ear cress)., UniProt Q9ZNV9)", "T3 construct": "ARABIDOPSIS … PHOSPHOTRANSFER PROTEIN 1 (AHP1), A. thaliana; also called AHP1; source: yeast two-hybrid fusion (pGADT7-DEST, S. cerevisiae PJ69-4A)", "T3 sequence (Q9ZNV9 whole entry, the tested form may be a part)": "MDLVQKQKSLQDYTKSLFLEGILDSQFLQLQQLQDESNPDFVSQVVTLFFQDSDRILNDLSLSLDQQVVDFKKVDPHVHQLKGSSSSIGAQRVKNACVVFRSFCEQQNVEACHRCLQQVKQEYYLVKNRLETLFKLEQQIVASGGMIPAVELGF", "test": "two-hybrid; recombinant antibodies as Gal4 DNA BD fusions (pGBKT7), AHP proteins as Gal4 AD fusions (pGADT7-DEST); S. cerevisiae PJ69-4A; growth after 3 days at 30°C on media lacking Leu, Trp and His or Ade; 1-5 mM 3-Amino-1,2,4-triazole for stringent selection"}, "[4]": {"target": "T4, ARABIDOPSIS … PHOSPHOTRANSFER PROTEIN 3, Gal4 activation domain fusion (A. thaliana, UniProt Q9SAZ5)", "T4 construct": "ARABIDOPSIS … PHOSPHOTRANSFER PROTEIN 3 (AHP3), A. thaliana; also called AHP3; source: yeast two-hybrid fusion (pGADT7-DEST, S. cerevisiae PJ69-4A)", "T4 sequence (Q9SAZ5 whole entry, the tested form may be a part)": "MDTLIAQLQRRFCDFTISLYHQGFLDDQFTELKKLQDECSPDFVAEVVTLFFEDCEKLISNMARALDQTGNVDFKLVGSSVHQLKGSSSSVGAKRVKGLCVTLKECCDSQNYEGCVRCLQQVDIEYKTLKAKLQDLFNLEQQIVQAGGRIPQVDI", "test": "two-hybrid; recombinant antibodies as Gal4 DNA BD fusions (pGBKT7), AHP proteins as Gal4 AD fusions (pGADT7-DEST); S. cerevisiae PJ69-4A; growth after 3 days at 30°C on media lacking Leu, Trp and His or Ade; 1-5 mM 3-Amino-1,2,4-triazole for stringent selection"}, "[5]": {"target": "T5, ARABIDOPSIS … PHOSPHOTRANSFER PROTEIN 5, Gal4 activation domain fusion (A. thaliana, UniProt Q8L9T7)", "T5 construct": "ARABIDOPSIS … PHOSPHOTRANSFER PROTEIN 5 (AHP5), A. thaliana; also called AHP5; source: yeast two-hybrid fusion (pGADT7-DEST, S. cerevisiae PJ69-4A)", "T5 sequence (Q8L9T7 whole entry, the tested form may be a part)": "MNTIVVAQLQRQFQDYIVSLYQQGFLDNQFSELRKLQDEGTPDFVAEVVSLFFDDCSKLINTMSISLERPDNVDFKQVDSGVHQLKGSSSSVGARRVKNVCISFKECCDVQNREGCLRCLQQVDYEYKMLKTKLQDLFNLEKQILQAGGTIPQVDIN", "test": "two-hybrid; recombinant antibodies as Gal4 DNA BD fusions (pGBKT7), AHP proteins as Gal4 AD fusions (pGADT7-DEST); S. cerevisiae PJ69-4A; growth after 3 days at 30°C on media lacking Leu, Trp and His or Ade; 1-5 mM 3-Amino-1,2,4-triazole for stringent selection"}, "[6]": {"target": "T6, ARABIDOPSIS … PHOSPHOTRANSFER PROTEIN 4, Gal4 activation domain fusion (Arabidopsis thaliana (Mouse-ear cress)., UniProt Q9LU15)", "T6 construct": "ARABIDOPSIS … PHOSPHOTRANSFER PROTEIN 4 (AHP4), A. thaliana; also called AHP4; source: yeast two-hybrid fusion (pGADT7-DEST, S. cerevisiae PJ69-4A)", "T6 sequence (Q9LU15 whole entry, the tested form may be a part)": "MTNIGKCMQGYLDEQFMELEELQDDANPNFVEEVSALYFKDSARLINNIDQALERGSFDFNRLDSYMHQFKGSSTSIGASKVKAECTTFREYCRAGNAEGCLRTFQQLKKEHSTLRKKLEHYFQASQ", "test": "two-hybrid; recombinant antibodies as Gal4 DNA BD fusions (pGBKT7), AHP proteins as Gal4 AD fusions (pGADT7-DEST); S. cerevisiae PJ69-4A; growth after 3 days at 30°C on media lacking Leu, Trp and His or Ade; 1-5 mM 3-Amino-1,2,4-triazole for stringent selection"}, "[7]": {"target": "T4, ARABIDOPSIS … PHOSPHOTRANSFER PROTEIN …", "test": "two-hybrid; yeast three-hybrid: receiver domain as Gal4 BD fusion, AHP proteins as Gal4 AD fusions, scFv hB7A expressed ectopically from pY3HS or empty pY3HS; S. cerevisiae PJ69-4A; media lacking Leu, Trp, Ura and His or Ade, or with 1 mM 3-Amino-1,2,4-triazole"}, "[8]": {"target": "T7, AHP3:cYFP (Arabidopsis thaliana (Mouse-ear cress)., UniProt Q9SAZ5)", "T7 construct": "ARABIDOPSIS … PHOSPHOTRANSFER PROTEIN 3 (AHP3), A. thaliana; source: A. thaliana Col-0 mesophyll protoplasts, transfected; not shown: C-terminal fragment of YFP (cYFP), C-terminal, kept", "T7 sequence (Q9SAZ5 whole entry, the tested form may be a part)": "as the sequence (Q9SAZ5 whole entry, the tested form may be a part) above", "test": "split reporter (BiFC, NanoBiT); bimolecular fluorescent complementation with split YFP in A. thaliana Col-0 mesophyll protoplasts, 16 h at room temperature, confocal microscopy"}, "[9]": {"target": "T8, cYFP:CKI1 RD (Arabidopsis thaliana, UniProt O22267)", "T8 construct": "CYTOKININ INDEPENDENT … KINASE 1 (CKI1), A. thaliana, receiver domain; source: A. thaliana mesophyll protoplasts, co-transformed; not shown: C-terminal fragment of YFP (cYFP), N-terminal, kept", "T8 sequence (O22267 whole entry, looked up, the tested form may be a part)": "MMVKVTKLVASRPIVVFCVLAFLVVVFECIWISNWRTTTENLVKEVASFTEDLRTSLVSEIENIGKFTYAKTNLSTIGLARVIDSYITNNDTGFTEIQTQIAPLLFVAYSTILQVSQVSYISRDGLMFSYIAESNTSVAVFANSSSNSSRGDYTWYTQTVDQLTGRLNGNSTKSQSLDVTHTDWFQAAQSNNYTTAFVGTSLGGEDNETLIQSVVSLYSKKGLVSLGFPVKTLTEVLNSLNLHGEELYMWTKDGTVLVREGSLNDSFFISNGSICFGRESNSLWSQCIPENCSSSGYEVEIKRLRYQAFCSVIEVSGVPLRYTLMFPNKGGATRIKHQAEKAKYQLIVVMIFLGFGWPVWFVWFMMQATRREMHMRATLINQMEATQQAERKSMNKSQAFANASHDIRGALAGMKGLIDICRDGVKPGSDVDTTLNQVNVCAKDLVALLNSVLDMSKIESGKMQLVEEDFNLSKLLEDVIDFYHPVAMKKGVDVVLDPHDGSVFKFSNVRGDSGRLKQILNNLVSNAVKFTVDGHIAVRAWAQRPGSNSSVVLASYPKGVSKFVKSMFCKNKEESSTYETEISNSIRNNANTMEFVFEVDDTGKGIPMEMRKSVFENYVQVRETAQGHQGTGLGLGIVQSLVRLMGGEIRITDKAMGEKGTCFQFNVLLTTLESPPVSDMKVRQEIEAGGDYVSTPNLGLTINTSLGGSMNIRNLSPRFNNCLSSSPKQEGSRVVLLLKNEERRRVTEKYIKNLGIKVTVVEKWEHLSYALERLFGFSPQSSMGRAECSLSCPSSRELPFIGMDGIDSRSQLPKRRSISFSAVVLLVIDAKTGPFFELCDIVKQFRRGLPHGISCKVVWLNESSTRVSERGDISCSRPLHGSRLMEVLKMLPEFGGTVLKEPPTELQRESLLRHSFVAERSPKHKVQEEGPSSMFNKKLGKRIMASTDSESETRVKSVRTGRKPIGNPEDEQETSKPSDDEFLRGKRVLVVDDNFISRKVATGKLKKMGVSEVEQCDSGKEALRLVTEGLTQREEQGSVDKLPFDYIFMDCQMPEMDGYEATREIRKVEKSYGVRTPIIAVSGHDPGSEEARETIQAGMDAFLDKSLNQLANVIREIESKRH", "test": "split reporter (BiFC, NanoBiT); bimolecular fluorescent complementation with split YFP in A. thaliana Col-0 mesophyll protoplasts, 16 h at room temperature, confocal microscopy"}, "[10]": {"target": "T9, recombinant ARABIDOPSIS … PHOSPHOTRANSFER PROTEIN 3 with 6x-His-tag (Arabidopsis thaliana (Mouse-ear cress)., UniProt Q9SAZ5)", "T9 construct": "ARABIDOPSIS … PHOSPHOTRANSFER PROTEIN 3 (AHP3), A. thaliana; also called AHP3; AHP3 antigen; source: purified", "T9 sequence (Q9SAZ5 whole entry)": "as the sequence (Q9SAZ5 whole entry, the tested form may be a part) above", "test": "far-Western, overlay or dot blot; total protein extracts of bacterially expressed AHP proteins separated by SDS-PAGE and blotted on PVDF; periplasmic extract with the scFv diluted 1:2 in blocking buffer (5% skimmed milk, TBS, 0.1% Tween-20), 1 h; detected by anti-c-myc-tag antibody"}},
  "data": [
    {"binder": "B1", "values": [
      {"measurement": "binding result", "setting": "[1]", "value": "no binding"},
      {"measurement": "binding result", "setting": "[2]", "value": "no binding"},
      {"measurement": "binding result", "setting": "[3]", "value": "no binding"},
      {"measurement": "binding result", "setting": "[4]", "value": "binds"},
      {"measurement": "binding result", "setting": "[5]", "value": "no binding"},
      {"measurement": "binding result", "setting": "[6]", "value": "no binding"}
    ]},
    {"binder": "B2", "values": [
      {"measurement": "binding result", "setting": "[7]", "value": "binds"}
    ]},
    {"binder": "B3", "values": [
      {"measurement": "binding result", "setting": "[8]", "value": "binds"},
      {"measurement": "binding result", "setting": "[9]", "value": "no binding"}
    ]},
    {"binder": "B4", "values": [
      {"measurement": "binding result", "setting": "[10]", "value": "binds"}
    ]},
    {"binder": "B5", "values": [
      {"measurement": "binding result", "setting": "[8]", "value": "binds"}
    ]}
  ]
}
